The values that follow come from patent US20260176636, “APTAMER-DIRECT INHIBITOR CONJUGATES AND METHODS OF USING THE SAME” (Duke University, published 2026).

Some results are limits rather than exact numbers.

Data set [1] addresses T1, thrombin (human alpha thrombin) (human, UniProt P00734;P00734 P00734:328-363,P00734:364-622). The data set is described as follows: inhibition; fluorogenic peptidyl substrate; >99% max inhibition; 2 mM CaCl2, pH 7.5, 28 C.
In data set [2] the target is T1, thrombin (human alpha thrombin). The data set is described as follows: BLI; printed as 54 μM but kon 3.9e7 M-1s-1 and koff 2.1e-3 s-1 give 54 pM; biotinylated aptamer immobilised; 20 mM HEPES, 150 mM NaCl, 2 mM CaCl2, pH 7.5.
The target is the same in data set [3]. The data set is described as follows: BLI; kon down 15-fold, koff up 8-fold; absolute KD only in figure. In general terms: BLI is a label-free optical method that tracks binding on a fibre tip over time.
The target is the same in data set [4]. In words: inhibition; ±0.04; max inhibition 55%; KEA,I 1.8.
Data set [5] deals with T2, factor Xa (human, UniProt P00742;P00742 P00742:41-179,P00742:235-488). In words: inhibition; fluorogenic substrate; free DAB IC50 >500 nM. Conditions: tags: Haematologic Technologies Inc.
T2 sequence (P00742 41-179, chain 1 of 2): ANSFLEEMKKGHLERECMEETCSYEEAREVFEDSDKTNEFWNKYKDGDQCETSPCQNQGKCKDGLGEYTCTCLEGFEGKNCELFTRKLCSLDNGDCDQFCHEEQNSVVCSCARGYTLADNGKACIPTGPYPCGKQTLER
T2 sequence (P00742 235-488, chain 2 of 2): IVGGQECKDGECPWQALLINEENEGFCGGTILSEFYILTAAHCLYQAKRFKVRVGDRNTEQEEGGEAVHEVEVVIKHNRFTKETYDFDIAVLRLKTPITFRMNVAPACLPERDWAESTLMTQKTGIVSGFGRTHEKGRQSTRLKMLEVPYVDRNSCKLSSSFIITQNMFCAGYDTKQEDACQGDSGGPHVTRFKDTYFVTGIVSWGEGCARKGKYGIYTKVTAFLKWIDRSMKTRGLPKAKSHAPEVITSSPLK
The target of data set [6] is T2, factor Xa. The data set is described as follows: inhibition; fluorogenic substrate; free APX IC50 5.5 nM. Conditions: tags: Haematologic Technologies Inc.
The target of data set [7] is T1, thrombin (human alpha thrombin). The data set is described as follows: BLI; no binding observed.

As for AAAAAAAAGTCCGTGGTAGGGCAGGTTGGGGTGACT (ssDNA, 5' dabigatran-C6 amide; 5' A(7) dA linker) [HD22-7A-DAB], in data set [1], half-maximal inhibition (IC50) was put at 0.1 nM. In data set [2], the affinity, expressed as Kd, was 0.054 nM.
Turning to AAAAAAAAGTCCGTGGTAGGGCAGGTTGGGGTGACT (ssDNA, 5' NH2-C6; 5' A(7) dA linker) [HD22-7A-NH2], the dissociation constant Kd – broadly, the constant that tells how readily two partners part at equilibrium – in data set [3] is > 100 fold weaker than HD22-7A-DAB.
For the molecule AGTCCGTGGTAGGGCAGGTTGGGGTGACT (ssDNA, 5' dabigatran-C6) [HD22-0A-DAB], the IC50 (commonly the point on the concentration scale where inhibition reaches its midpoint) in data set [4] came out at 0.55 nM.

B1: 11F7t-20A-DAB (ssRNA)
RNA: AAAAAAAAAAAAAAAAAAAAGAGAGCCCCAGCGAGAUAAUACUUGGCCCCGCUCUU
modifications: 5' dabigatran-C6; 2'-OMe A(20) linker; C and U of aptamer 2'-F (inferred); 3' T
In the data set with factor Xa [5], B1 showed an IC50 of 0.18 nM.

B2: 11F7t-20A-APX (ssRNA)
RNA: AAAAAAAAAAAAAAAAAAAAGAGAGCCCCAGCGAGAUAAUACUUGGCCCCGCUCUU
modifications: 5' apixaban-C6; 2'-OMe A(20) linker; C and U of aptamer 2'-F (inferred); 3' T
The molecule B2 returned a 50% inhibitory concentration (IC50) in the data set with factor Xa [6] of 0.17 nM.
Consider AAAAAAAAGTCCGTAATAAAGCAGGTTAAAATGACT (ssDNA, 5' NH2-C6; 5' A(7) dA linker) [HD23-7A-NH2], for which the binding result in data set [7] is reported as “no binding”.
